A word on the Kd: it is the free concentration of one partner at which half of the binding sites on the other are occupied at equilibrium, for simple one-to-one binding.

The test deals with T1, human Aβ peptide (1-40) biotinylated at the C terminus (human, UniProt P05067 672-711, biotinylated at the C terminus).
T1 construct: domain: beta-amyloid peptide (1-40); the peptide starts at the BACE-1 cleavage site (DAEFRHD...); also called beta-amyloid 1-40 peptide (biotinylated at the C-terminus); streptavidin-captured beta-amyloid (1-40)
Nature of the test: Biacore SPR, similar to Method A(i); streptavidin-captured beta-amyloid (1-40), Fab in solution.

T1 sequence (P05067 672-711 limits assumed): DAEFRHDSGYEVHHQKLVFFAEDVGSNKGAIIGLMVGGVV

B1: Fab fragments of H2L1, obtained by papain digestion (Fab, V domains shown)
VH: EVQLVESGGGLVQPGGSLRLSCAVSGFTFSDNGMAWVRQAPGKGLEWVSFISNLAYSIDYADTVTGRFTISRDNAKNSLYLQMNSLRAEDTAVYYCVSGTWFAYWGQGTLVTVSS
VL: DIVMTQSPLSLPVTPGEPASISCRVSQSLLHSNGYTYLHWYLQKPGQSPQLLIYKVSNRFSGVPDRFSGSGSGTDFTLKISRVEAEDVGVYYCSQTRHVPYTFGGGTKVEIKR
notes: also called H2L1 Fab
Turning to B1, the Kd is ~2.4 nM.

Values taken from patent US20140050719A1 (GlaxoSmithKline, published 2014).
